Laboratory results as given in PMC7956451 (International Journal of Molecular Sciences, 2021).

Target: T1, CMVpp65_(495-503)/HLA-A*02:01 single-chain trimer (SCT) protein (Homo sapiens HLA-A*02:01 (BC019236) and …, UniProt P06725;P61769;Q8WUX3, stabilised)
T1 construct: source: HEK293F, transfected, purified from culture supernatant (Ni-NTA)
Test: BLI; Abs (mouse IgG2a/κ) immobilised, soluble pMHC SCT as analyte; pH 7.4; Octet QKe; global fit, 1:1 Langmuir model
Conditions: both partners purified

B1: H9 TCR-like antibody in mouse IgG2a/κ format (antibody, V domains shown)
VH: EVQLVQSGAEVKKPGSSVKVSCKASGGTFSSYAISWVRQAPGQGLEWMGGIIPIFGTANYAQKFQGRVTITADESTSTAYMELSSLRSEDTAVYYCARGDLYYYDSSGYPRYYFDYWGQGTLVTVSS
VL: ETTLTQSPGTLSLSPGERATLSCRASQSVSSSYLAWYQQKPGQAPRLVIYGASSRATGIPDRFSGSGSGTDFTLTISRLEPEDFAVYYCQHYSTSPGFTFGQGTKLEIR
notes: also called parental H9; H9 Ab
Kd: 348 ± 33 nM
koff: 0.0022 s⁻¹
kon: 6300 M⁻¹ s⁻¹
